Molecular target: Csk (UniProt P41240)
Experiment: anti-Flag co-IP, anti-Myc blot
Details: reference: Myc-Cbp wild type; sites Y317

Substance: Cbp (Csk binding protein, Cbp/PAG1) (from UniProt Q9NWQ8) Myc-Cbp Y317F
- binding against the reference: weaker
